Target: T1, SARS-CoV-2 nonstructural protein 10 (nsp10) (SARS-CoV-2, UniProt P0DTD1 4254-4392)
T1 construct: also called 2H15N-nsp10; apo-nsp10
Experiment: MST
Conditions: both partners purified

B1: nsp14ExoN, nsp14 without the methyltransferase domain but retaining the exonuclease activity (domain or fragment)
chain: AENVTGLFKDCSKVITGLHPTQAPTHLSVDTKFKTEGLCVDIPGIPKDMTYRRLISMMGFKMNYQVNGYPNMFITREEAIRHVRAWIGFDVEGCHATREAVGTNLPLQLGFSTGVNLVAVPTGYVDTPNNTDFSRVSAKPPPGDQFKHLIPLMYKGLPWNVVRIKIVQMLSDTLKNLSDRVVFVLWAHGFELTSMKYFVKIGPERTCCLCDRRATCFSTASDTYACWHHSIGFDYVYNPFMIDVQQWGFTGNLQSNHDLYCQVHGNAHVASCDAIMTRCLAVHECFVKRVDWTIE
B1 gave a Kd of 4.55 ± 2.68 µM.

Reference: paper PMC11194070, “Despite the odds: formation of the SARS-CoV-2 methylation complex” (Nucleic Acids Research, 2024)
